The values that follow come from the DeepSol protein solubility set.

This data set is described as follows: soluble on expression in E. coli; label from the status in PepcDB or PDB records.
Take “MSLENPTSIQIWHYYNGQQKMAFDKLVKEFNDTVGAEKGIIVEAFSQGNVVDLSEKVLDSANKKVGSEDVPNIFAAYSDTAYEMDKLGLLVDMDKYISKEELNEYIDEYVEEGRINSKDEFKLFPIAKSTEILMLNKTDWDKFAKATNSNINDIKTIEGLVETSKKYYEWTDSLTKEPNDGKAFFGRDALANYIIIGSKQLGVEIFSVKDGKVTLNIDEKVMKKLWDNFYVPYINGYFASYGKFRSDDAKTGDILALVGSSSGAAYFPDRVMLNDNESYNIETSVFQAPRFKGEGKYAVQQGAGMAVTKSTKEEEYASVEFLKWFTDKEPNIKFSIASGYLPVKKKTNDLDVIKEVMKKDNLSLSDKVEGSIASSIEQINSCNLYTNKAFDGGTKARQILEYSMLDKAKEDSNKINELVKSGTSKKDAVAQFNNDKNFKTWFEIFKAELENAIKEGHHHHHH”: the “soluble on expression in E. coli” value is “soluble”.
Under “SNAENNQTTTTHSKVISHVFCTGTAKLGSVGPPIGLVDIGVSEVAYIFRVSLPGIEKNQDKIKCEIQREGRVCIQGVIPEIAIPSDTGCLYRMQVQQLCPPGPFSITFNLPGQVDPRLFSPNFRSDGIFEVVVVKLGVRIPTS” stands “soluble”; under “MGSDKIHHHHHHMRDFSSDHSALALNTASLGHNLEGHGAGWTSEQVIDACAERGFGSIVFWRREIGERAVKIGERVRSAGLTVAGLCRTPFLVGTQATDVESVMDDFKRSIDMAAALGAPVLTIVVGGVHPGTKGVAESLKIVADRVAEAAPCAQASGVKLALEPLNPVYAGNRSCLTTLRDAVDLCDRIAAPNVGIAVDVYHVWWDTELERQLKRAGAERIYGYHLCDWLAETNDVLLDRGMMGDGVADLKAIRSFVEGAGYRGPCEVEIFSANDWWKRDPGEVLDVMVERFRNCC”, “not soluble”.
The same measure for “MSRPTIIINDLDAERIDILLEQPAYAGLPIADALNAELDRAQMCSPEEMPHDVVTMNSRVKFRNLSDGEVRVRTLVYPAKMTDSNTQLSVMAPVGAALLGLRVGDSIHWELPGGVATHLEVLELEYQPEAAGDYLL”: “soluble”.
Under “MGSDKIHHHHHHMVMEVIKVKYKAFDVGAVSYNTDTQMGSFEYFPSFIKTGIELSPIKMPLAKNIYSFPQLDQNTFKGLPGLIADSLPDDFGNAVMNAWIASQGKSTSDITPLQRLQYTGMRGMGALTYSPATKRKNLNASQPIHIESLVSIAQDVLDKRQQFSVDLENNGQEDKEAMMSLMSVGMSAGGARPKAVLAFNNDLTQVRSGQTDAPEGFTHYLMKFDGVSEHNKNQETFGDPMGYGAMEYTYHILAKECGIDMMPCHLLNEGKRRHFITERFDRNGNDKIHVQTLNGLEHVSYKQIGSYSYAELFNTARKLKLSPDDAMQLFKRMVFNVISRNHDDHAKNFGFMLDKDHKWQLAPAYDLAYSYKPDSHWVSKHWMTLNGKQDNFTRDDFYSFEKLSPIFSKRKIDDVLNQTIEAVSQWDKYAAEHAVPNSLIKEISQNLRLFL” stands “not soluble”; under “MAHHHHHHMAAACGCRSLLSRDMPRRFPMCVASGTMCRRLCDCRMEGEERRELRERRCQESRWASCRRAHCPPSPAPPCRAPSITPQHRSRRHQHTARQRMPPPSRVRPEGTRPLLRSEESHRVAQRRAQNLLADSAHDTGQWTLSVCVVEDTAVESLLSSGWTVG”, “not soluble”.
As to “MGSDKIHHHHHHMLINRNIVALFALPFMASATASELSIGAGAAYNESPYRGYNENTKAIPLISYEGDTFYVRQTTLGFILSQSEKNELSLTASWMPLEFDPTDNDDYAMQQLDKRDSTAMAGVAWYHHERWGTVKASAAADVLDNSNGWVGELSVFHKMQIGRLSLTPALGVLYYDENFSDYYYGISESESRRSGLASYSAQDAWVPYVSLTAKYPIGEHVVLMASAGYSELPEEITDSPMIDRNESFTFVTGVSWRF”, the “soluble on expression in E. coli” value is given as “not soluble”.
Regarding “MVKNGRDPPERNFYCTEKEETAPPLMNIFDDFKSQIEREIMTIFLKTAYESLLSIAISTEIIVPEDETRSLEKEVIKLMKLMKLMNLLEPLGNRVSRLMGLVRNAEEHRERIVKRNQESDVREIFKIAASRTKTRFHKALQKESSSSSMKWGFTEAKDEVLSLGIRLTHALIKLTLLRVKKNDREKQLLLRDWIFDESYEKQSALMYLLDYLLYKAEEFAASVVVEESGNDHHRQHILEEDRIGDDILTRISEAIFILQLLAMNLSRNVLTERDLIATNDQLLRCVRDVKFVESTIVVLMKGRSLKLKHKGKQSLLMKERTETIFWAKVNAELNKCWGESFWKYVEAARHLEAVVSSQQIVYTLCKLFVFGFES”, the “soluble on expression in E. coli” value was “not soluble”.
Consider “EGDIHMSLSHPPIPILELADHIERLKANDNLKFSQEYESIDPGQQFTWEHSNLEVNKPKNRYANVIAYDHSRVLLSAIEGIPGSDYVNANYIDGYRKQNAYIATQGSLPETFGDFWRMIWEQRSATVVMMTKLEERSRVKCDQYWPSRGTETHGLVQVTLLDTVELATYCVRTFALYKNGSSEKREVRQFQFTAWPDHGVPEHPTPFLAFLRRVKTCNPPDAGPMVVHCSAGVGRTGCFIVIDAMLERIKHEKTVDIYGHVTLMRAQRNYMVQTEDQYIFIHDALLEAVTCGNTEVPARNLYAYIQKLTQIETGENVTGMELEFKRLASSKAHTSRFISANLPCNKFKNRLVNIMPYESTRVCLQPIRGVEGSDYINASFLDGYRQQKAYIATQGPLAETTEDFWRMLWEHNSTIVVMLTKLREMGREKCHQYWPAERSARYQYFVVDPMAEYNMPQYILREFKVTDARDGQSRTVRQFQFTDWPEQGVPKSGEGFIDFIGQVHKTKEQFGQDGPISVHCSAGVGRTGVFITLSIVLERMRYEGVVDIFQTVKMLRTQRPAMVQTEDQYQFCYRAALEYLGSFDHYATEGHHHHHH”, for which the “soluble on expression in E. coli” value is reported as “not soluble”.
The same measure for “MKPVYLAMNYFGPHEHSIIDFSKLESTPIFLISGDTGAGKSTIFDAMTFALFGSTTNDGTDGRAAKEMRSQFAPADQPTSVTFYFEQGNQLYKIARSPEQYLAKKKGSGLTKKNSTAKLAVVDHVGGVEIESIATKPADVGPEITTILNLTADQFKKIILLPQNDFSEFLKSKTTDKEKILKKIFGTQLYSDFTAELKAEYQTASKTGDQFVADLRVALASATWNDEEQAQLQAVPDNQKIPLLRAFVTTRQSAFDQAQQT”: “not soluble”; for “MLRISELKLPLDHTQEELADAVAGFLKAPADEVRGFTVFKRSYDARKGVMSLVYIIDVDVANEDKLFARFKGDRRVMPTPDTHYYYVAQAPESLKSRPVVVGFGPCGIFAALILAQMGFKPIVLERGKEVRQRTKDTWGLWRKSELNTESNVQYGEGGAGTFSDGKLYSQIKDPRHLGRKVLTEFVKAGAPEEILYLARPHIGTFRLVSMVENMRAEIIALGGEIRFEQRVDDLILDGDRVRGVKLADGGEVLSDHVVLALGHSARDTFQMLEKRGVYMEAKPFSVGVRIEHPQSLIDAARWGKYAGHPILGAADYKLVHHAGNGRAVYSFCMCPGGTVVAATSEEKRVVTNGMSQYSRNERNANSGFVVSISPEVDYPGGPLAGLDFQRELESKAYELGGGDYFAPAQLLGDFMAGKASTQLGSVEPSYKPGVTMTDLARILPDFCVEAMREAIPHFARQIRGYDLHDAVLTGLETRTSSPLRITRGEDFQSLNIKGLFPAGEGAGYAGGILSAGVDGIKVAEAVAKAMLGQLEHHHHHH”: “soluble”; for “MLTLENQIKEEREQDNSESPNGRTSPLVSQNNEQGSTLRDLLTTTAGKLRVGSTDAGIAFAPVYAMGAPSSKSGRTMPNILDDIIASVVENKIPPSKTSKINVKPELKEEPEESIISAVDENNKLYSDIPHSWICEKHILWLRIIRIAVIGSFSKNVGNKDSLQWFLVCIRKLEHHHHHH”: “not soluble”.
The same measure for “MGSDKIHHHHHHMAKNKTAYVCNECGQDFPRWQGQCSACQEWNTITEVRLGAASPGRSTKFVGYAGASSNEVKTLDQIDLNAMPRILSHFGELDRVLGGGIVPGSAILIGGHPGAGKSTLLLQTLCHLAEQMPALYVTGEESLQQVAMRAHRLGLPTNKLRMLSETSVEQICEVALKELPKVIVVDSIQVMHMSDVASSPGSVSQVRESASYLTRFAKENGIAVIMVGHVTKDGSLAGPKVLEHCIDCSVMFEGDSDSRYRTLRSHKNRFGAINELGVFAMTERGLKEVANPSAIFLSRGEEESSGSLVMVVWEGTRPLLVELQVLVDNSAMSNPRRVAVGMDANRLAMLLAVMHRHGGLQMSDQDVFVNVVGGVKVTETSADLTLLLAMVSSFRGDILPSDLVAFGEVGLSGEIRPVPNGQERLIEAAKHGFKRAIVPKANVPKKPPAGMEVVGVSKLSEALEAI”: “not soluble”; for “MGDVQMGNCLRIPSANMAPALPEHGTAEASTSNPMPHAGNMTAGPQEHTAVEGCAGRQIADMWLSSLERPARRPSGSRSQPTAQSRPQSKLEKLTEQRQSMLQRAIILEDQWRSLQERCARTSVGGRQAFNLDILKGIIDRDKQALERMGGEGSYIAERHLHRIERTLQDFEKKISNQKKLQSHLAKANDFLARLKLLKDELSSRGENKDILNDIDLNIKDLEGILNELTRIEANGAGIQYDGCRGGAIAYFDSVTISLEAMLRSQDSGYFDYMRPALANVLQDGYSPSRRKAVSDAGMRGGASDGIS”: “not soluble”.
The same measure for “MHPRSKLSQAQRELAVDLFEEGYGSRAVANRLGVRREQVRHLEDRFRLHGRLCLVSKRTKRQYSFDTKMEILRRHKAGELKSDLAKEYGLSSPALINHWVWQVNKGGPDALRPKPKGRPKSSARPAPVTEEDKLRRENELLKAEVAYLKKLRDLRDQRRGLEHHHHHH”: “not soluble”; for “MNTIPLHTILKLMAHPERMAILIQLLDSERNIAELAKSLSLPATAVSNHLNRLRVEGLVDFTRYHRIIEYRLVSEEAAAILHTVRDLENKRVA”: “not soluble”.
For “MAHHHHHHHRSPTRVNDGVDADEVTFVNRFTVHGAPAEFESVFARTAAFFARQPGFVRHTLLRERDKDNSYVNIAVWTDHDAFRRALAQPGFLPHATALRALSTSEHGLFTARQTLPEGGDTTGSGHR”, the “soluble on expression in E. coli” value is “soluble”.
In the case of “MGSDKIHHHHHHVTTQLKETPPSDTSSINLEAEFQASNIKEVLDKLDRELIGLKPVKTRIRETAALLLVDRVRKKLDLTAGAPSLHMSFTGNPGTGKTTVAQRMSEILHRLGYVREGHLVSVTRDDLVGQYIGHTAPKTKEVIKKAMGGVLFIDEAYYLYKPENERDYGAESIEILLQVMENNRDDLVVILAGYKDRMDKFFRSNPGMRSRIAHHIDFPDYSPDELVAIAKLMLAAQNYRLSAEAEKAFGEYIRLRMKMEHFANARSVRNALDRARLRQANRLFEGAKKNLSRTDLITIEAEDIRASRVFVEGAVDLDGDEGASRELSEESV”, the “soluble on expression in E. coli” value is listed as “not soluble”.
As to “MLSHETIWSAIDTLAERHQLTPSALAKRAGLDPTSFNKSKRFGPDGRKRWPSTESVSKVLEATGASVDQFFGYAFGRAQTMQPSGADNAIPLLGFAQAGSGGFFDDGGFPAGQGWDVVEFPSSPERKQGVYALEVQGESMMPLYRDGDILIVEPGAPVRRGDRVVLKSRDGEVMAKVLARQSPKNIELLSLNPEHPNRSFDMADVEWIARIIWASQ”, the “soluble on expression in E. coli” value was “not soluble”.
Turning to “GHMASGLTIYFKKPDSWGTPHLYYYDTNPKVDEPTWSEAPEMEHYEGDWYTHTIEGVESVRLLFKDRGTNQWPGPGEPGFFRDQDGWFDGEWHVDRPG”, the “soluble on expression in E. coli” value was “soluble”.
Turning to “MLDSVTHSTFLPNASFCDPLMPWTDLFSNEDYYPAFEHQTACDSYWTSVHPEYWTKRHVWEWLQFCCDQYKLDANCISFCHFNISGLQLCSMTQEEFIEAAGICGEYLYFILQNIRSQGYSFFNDAEETKTGIKDYADSSCLKTSGIKSQDCHSRTSLQSSHLWEFVRDLLLSPEENCGILEWEDREQGIFRVVKSEALAKMWGQRKKNDRMTYEKLSRALRYYYKTGILERVDRRLVYKFGKNAHGWQEEKL”, the “soluble on expression in E. coli” value is “soluble”.
